Results as given in patent publication US20240360194A1, “New Peptides as Potent and Selective GIP Receptor Agonists” (Sanofi, priority 2021, published 2024).
Numbered stars: 1 amine (or outer) side, 2 acyl side, 3 side chain; on linkers, the order of the positions; unused ones are H or OH. Square brackets hold non-standard residues; d marks the D form. Side chains are listed from the residue outwards. Ends that are not written are not given here. * marks the point of attachment. C18 diacid = O=C(O)CCCCCCCCCCCCCCCCC(=O)*; γGlu = O=C(O)[C@H](CCC(=O)[*:2])N[*:1]; Iva = CC[C@](C)(N)C(=O)O; AEEA = NCCOCCOCC(=O)O; Aib = CC(C)(N)C(=O)O

What was measured:
[1] = target: T1, human GIP receptor (human), P48546; assay: cell-based or functional assay
T1 chain: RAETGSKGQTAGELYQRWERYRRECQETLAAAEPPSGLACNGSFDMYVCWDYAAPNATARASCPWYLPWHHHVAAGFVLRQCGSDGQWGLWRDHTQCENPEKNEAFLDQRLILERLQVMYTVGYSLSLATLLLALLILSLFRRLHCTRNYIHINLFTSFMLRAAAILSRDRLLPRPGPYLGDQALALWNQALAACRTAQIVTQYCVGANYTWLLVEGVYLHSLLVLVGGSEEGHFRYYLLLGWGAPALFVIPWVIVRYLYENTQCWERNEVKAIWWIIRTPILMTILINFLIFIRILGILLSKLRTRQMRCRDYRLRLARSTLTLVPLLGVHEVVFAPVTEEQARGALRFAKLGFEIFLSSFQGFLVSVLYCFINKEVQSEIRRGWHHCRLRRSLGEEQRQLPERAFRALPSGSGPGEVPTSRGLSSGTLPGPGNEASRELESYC

[2] = target: T1, human GIP receptor (human), P48546; assay: displacement of [125I]GIP from HEK-293 membranes expressing hGIPR (SPA beads)
[3] = target: T2, human GLP-1 receptor (human), P43220; assay: displacement of [125I]GLP-1 from HEK-293 membranes expressing hGLP-1R (SPA beads)
T2 chain: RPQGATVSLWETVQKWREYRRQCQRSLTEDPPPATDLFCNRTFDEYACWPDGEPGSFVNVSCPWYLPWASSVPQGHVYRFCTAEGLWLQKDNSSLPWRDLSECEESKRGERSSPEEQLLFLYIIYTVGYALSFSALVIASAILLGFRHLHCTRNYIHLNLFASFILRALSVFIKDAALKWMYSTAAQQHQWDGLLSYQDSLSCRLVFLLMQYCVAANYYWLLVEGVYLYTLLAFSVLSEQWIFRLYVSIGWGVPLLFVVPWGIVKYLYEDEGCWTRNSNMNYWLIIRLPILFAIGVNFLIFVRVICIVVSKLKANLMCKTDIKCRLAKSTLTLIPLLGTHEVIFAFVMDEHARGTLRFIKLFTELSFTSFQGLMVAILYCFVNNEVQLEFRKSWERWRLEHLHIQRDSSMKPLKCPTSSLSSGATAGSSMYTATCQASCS

human GIP receptor [4] = target: T3, human GIP receptor (human, UniProt P48546 22-466); assay: cell-based or functional assay
T3 sequence (looked up): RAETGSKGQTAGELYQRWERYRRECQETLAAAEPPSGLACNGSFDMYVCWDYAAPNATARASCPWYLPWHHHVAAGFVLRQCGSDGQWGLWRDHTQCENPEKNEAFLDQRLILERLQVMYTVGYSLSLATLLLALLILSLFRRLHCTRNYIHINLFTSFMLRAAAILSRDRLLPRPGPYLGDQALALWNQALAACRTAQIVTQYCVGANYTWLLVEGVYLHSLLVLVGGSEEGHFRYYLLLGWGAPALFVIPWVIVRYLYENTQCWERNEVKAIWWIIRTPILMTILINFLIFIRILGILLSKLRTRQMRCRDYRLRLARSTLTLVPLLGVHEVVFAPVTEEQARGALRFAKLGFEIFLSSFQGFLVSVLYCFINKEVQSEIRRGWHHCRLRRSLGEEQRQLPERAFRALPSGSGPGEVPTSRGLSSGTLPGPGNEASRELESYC

human GLP-1 receptor [5] = target: T4, human GLP-1 receptor (human, UniProt P43220 24-463); assay: cell-based or functional assay
human GIP receptor [6] = target: T3, human GIP receptor; assay: cell-based or functional assay; remark: listed apart in the source
human GIP receptor [7] = target: T3, human GIP receptor; assay: displacement of [125I]GIP from HEK-293 membranes expressing hGIPR (SPA beads)
human GLP-1 receptor [8] = target: T4, human GLP-1 receptor; assay: displacement of [125I]GLP-1 from HEK-293 membranes expressing hGLP-1R (SPA beads)

B1: SEQ ID NO: 38 (peptide)
peptide: Y[Aib]EGTFISDLSI[Aib]LEEQKQ[Aib]EFIEWLLAQGPSSGEPPPS-NH2
Question: For B1, which EC50 hGIPR 0% HSA (cAMP, HEK-293) [1] is on record?
Answer: 0.19 pM

Question: And the EC50 hGIPR 0.1% BSA (cAMP, HEK-293) [1]?
Answer: 53.1 pM

Question: What about the hGIPR EC50 (cAMP, human adipocytes) [1] of the same binder?
Answer: 400 pM

Question: And the hGIPR Emax (cAMP, human adipocytes) [1]?
Answer: 92%

Question: What about the IC50 [2] of the same binder?
Answer: 200 pM

Question: And the IC50 [3]?
Answer: 73000 pM

B2: SEQ ID NO: 24 (peptide)
peptide: H-Y[Aib]EGT[Iva]ISDLSI[Aib]K([AEEA-AEEA-γGlu-C18 diacid])DRIHQEEFIEWLLAQGPSSGAPPPS-NH2
notes: Synthetic peptide, 39 residues
Question: B2 was tested. Which “EC50 hGIPR 0% HSA (cAMP, HEK-293)” value (human GIP receptor [4]) did it give?
Answer: 0.56 pM

Question: And the “EC50 hGIPR 0.1% BSA (cAMP, HEK-293)” value (human GIP receptor [4])?
Answer: 36.6 pM

Question: What about the “EC50 hGLP-1R 0.1% BSA (cAMP, HEK-293)” value (human GLP-1 receptor [5]) of the same binder?
Answer: > 10000 pM

Question: What about the “hGIPR EC50 (cAMP, human adipocytes)” value (human GIP receptor [6]) of the same binder?
Answer: 200 pM

Question: And the “hGIPR Emax (cAMP, human adipocytes)” value (human GIP receptor [6])?
Answer: 100%

Question: And the IC50 (human GIP receptor [7])?
Answer: 100 pM

Question: What about the IC50 (human GLP-1 receptor [8]) of the same binder?
Answer: 188000 pM
